From patent CN114075285A (REYOUNG SUZHOU BIOPHARMACEUTICAL CO LTD, dated 2022)
Values belong to the binder of their own block, whether it stands above or below them.

Columns and labels:
[1] = biological target: T1, CD38 (human), analyte in Biacore (human, UniProt P28907 43-300, limits assumed); test: SPR (Biacore 8K), antibody captured on Protein A chip, CD38 as analyte, 25℃
T1 construct: also called 分析物CD38; 人的CD38蛋白

[2] = biological target: CD38 antigen on the cell surface (Daudi cells; NCI-H929 cells) (human, UniProt P28907 1-300); test: cell-based or functional assay

Kd [1]: 1.04 nM | ADCC reporter (Jurkat-Lucia-NFAT-CD16 + NCI-H929), EC50(μg/mL) [2]: 0.011 µg/mL
B1: RB0021-S3 (antibody)
chain 1: not shown
chain 2: DVQMTQSPSSVSASVGDRVTITCRSSQSPEHSNGNTYLHWYQQKPGKAPKLLIYKVSNRFSGVPSRFSGSGSGTDFTLTISSLQPEDFATYFCSQGTHFPFTFGQGTKVEIKRTVAAPSVFIFPPSDEQLKSGTASVVCLLNNFYPREAKVQWKVDNALQSGNSQESVTEQDSKDSTYSLSSTLTLSKADYEKHKVYACEVTHQGLSSPVTKSFNRGEC

Kd [1]: 1.04 nM | ADCC reporter (Jurkat-Lucia-NFAT-CD16 + NCI-H929), EC50(μg/mL) [2]: 0.014 µg/mL
B2: RB0021-S4 (antibody)
chain 1: not shown
chain 2: B1 chain 2
